From publication PMC8026080, “Functional regulation of the structure-specific endonuclease FEN1 by the human cytomegalovirus protein IE1 suggests a role for the re-initiation of stalled viral replication forks” (PLoS Pathogens, 2021) come the findings set out here.

Assay [1] deals with FLAG-FEN1 (full length) (UniProt P39748).
Assay [2] deals with FLAG-FEN1 (full length) (UniProt P39748 1-380). The experiment in a line: cell-based or functional assay.
Sequence of FLAG-FEN1 (full length) (UniProt P39748 1-380) (P39748 whole entry): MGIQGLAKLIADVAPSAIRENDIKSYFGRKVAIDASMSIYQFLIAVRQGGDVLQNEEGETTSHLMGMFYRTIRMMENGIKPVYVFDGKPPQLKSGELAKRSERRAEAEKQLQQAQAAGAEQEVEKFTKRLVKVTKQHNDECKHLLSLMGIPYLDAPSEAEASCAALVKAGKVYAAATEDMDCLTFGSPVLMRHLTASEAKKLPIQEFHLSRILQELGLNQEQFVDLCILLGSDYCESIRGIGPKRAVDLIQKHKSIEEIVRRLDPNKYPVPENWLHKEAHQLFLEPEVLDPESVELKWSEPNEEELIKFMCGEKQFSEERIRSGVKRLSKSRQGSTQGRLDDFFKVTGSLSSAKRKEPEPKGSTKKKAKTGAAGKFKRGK

Sequence of FLAG-FEN1 (full length) (UniProt P39748) (P39748 whole entry): as above

As to “HCMV immediate early protein 1 (IE1) expressed in AD169-infected cells (natural protein)”, the normalized pFEN1 (Ser187)/FEN1 ratio by densitometry of Western blots, 293T cells transfected with FLAG-FEN1 and untagged IE1 wt (FEN1 alone set to 1) with FLAG-FEN1 (full length) [1] stood at 2.4.

B1: Myc-IE1 1–382 5x mut (domain or fragment, human cytomegalovirus, UniProt P13202 1-382, looked up)
chain: MESSAKRKMDPDNPDEGPSSKVPRPETPVTKATTFLQTMLRKEVNSQLSLGDPLFPELAEESLKTFEQVTEDCNENPEKDVLAELVKQIKVRVDMVRHRIKEHMLKKYTQTEEKFTGAFNMMGGCLQNALDILDKVHEPFEEMKCIGLTMQSMYENYIVPEDKREMWMACIKELHDVSKGAANKLGGALQAKARAKKDELRRKMMYMCYRNIEFFTKNSAFPATTNGCSQAMAALQALPQCSPDEIMAYAQKIFKILDEERDKVLTHIDHIFMDILTTCVETMCAEYKVTSDACMATMYGGISLLSEFCAVLCCYVLEETSVMLAKRPLITKPEVISVMKRRIEEICMKVFAQYILGADPLRVCSPSVDDLRAIAEESDEEE
Regarding B1, in the assay with FLAG-FEN1 (full length) [2], the “normalized pFEN1 (Ser187)/FEN1 ratio by densitometry of Western blots, 293T cells transfected with FLAG-FEN1 and full-length IE1 5x mut (FEN1 alone set to 1)” value came to 1.5 ratio.
